Patent publication US11180762B2, “Methods and compositions for the treatment of cancer” (CHILDREN'S MEDICAL CENTER CORPORATION, priority 2014, dated 2021)
“Also recorded” adds a separate entry of the source.

Tests used:
[1] = tested on: co-cultures of GFP− TNBC cells and GFP+ BPE cells; assay: Co-culture of tumor cells with GFP+ BPE cells, relative survival by flow cytometry; type: cell-based, human
Protocol: To determine whether EpCAM-AsiCs specifically target EpCAM+ cells when mixed with EpCAM^dim non-transformed epithelial cells, we incubated co-cultures of GFP− TNBC cells and GFP+ BPE cells with PLK1 EpCAM-AsiCs or medium and used GFP fluorescence to measure their relative survival by flow cytometry 3 days later (FIG. 2D, 2E). […] Thus PLK1 EpCAM-AsiCs are selectively cytotoxic for EpCAM+ tumor cells when mixed with normal cells.
To understand whether EpCAM-AsiC can specifically target basal A and luminal breast cancer cells and inhibit proliferation we designed an EpCAM-AsiC targeting PLK1. PLK1 is a known trigger for […] transition. The effect of EpCAM-AsiC targeting PLK1 on cell proliferation was tested on 10 breast cancer cells representative of basal A, B and luminal cell lines. […] A correlation was seen between EpCAM expression levels and cell viability (FIG. 27B). To understand if EpCAM-AsiC will specifically target EpCAM+ cells in a mix cell population HCC1937 (EpCAM+GFP−) cell were co-cultured with BPE (EpCAM-GFP+) cells and treated with EpCAM-AsiC targeting PLK1 or untreated. […] The co-culture was repeated with other basal A cell lines (MB468 and HCC1143) similar reults were obtained. When BPE cells were grown in a co-culture with basal B cell (MB231) the ratio between BPE and MB231 cells stayed the same regardless of the EpCAM-AsiC treatment (66% BPE and 33% MB231 in untreated co-culture and 61% BPE and 38% MB231 following EpCAM-AsiC treatment) (FIG. 27C, 27D).

[2] = tested on: IFNβ, IL-6, IP-10 and IFN-induced genes; assay: Innate immune stimulation in mice; type: in vivo; conditions: 5 mg/kg sc
Protocol: Mice were injected sc with eGFP EpCAM-AsiCs (5 mg/kg, n=3) or ip with Poly(I:C) (5 or 50 mg/kg (n=2/dose). FIG. 8A: Serum samples, collected at baseline and 6 and 16 hr after treatment were assessed for IFNβ, IL-6 and IP-10 by multiplex immunoassay. * p<0.05. ** p<0.01, *** p<0.001, compared to baseline. FIG. 8B: mRNA expression of cytokine and IFN-induced genes, relative to gapdh was assayed by qRT-PCR in total splenocytes harvested 16 hr post treatment. ** p<0.01, compared to untreated (NT, n=3).
Mice were injected sc with eGFP EpCAM-AsiCs (5 mg/kg) or ip with Poly(I:C) (5 or 50 mg/kg). Serum samples, collected at baseline and 6 and 16 hr after treatment were stored at −80° C. before measuring IFNβ, IL-6 and IP-10 using the ProcartaPlex Multiplex Immunoassay (Affymetrix/eBioscience, San Diego, Calif.). Spleens, harvested at sacrifice 16 hr post treatment, were stored in RNAlater (Qiagen) before extracting RNA using TRIZOL (Invitrogen) with the gentleMACS Dissociator (MACS Miltenyi Biotec, San Diego, Calif.). cDNA was synthesized using Superscript III and random hexamers (Invitrogen) and PCR was performed using SsoFast EvaGreen Supermix and a Bio-Rad CFX96 Real-Time PCR System (Bio-Rad Laboratories, Hercules, Calif.) using the following primers: […]

AKT1 = AKT1 mRNA and protein knockdown in breast cancer cell lines; type: cell-based, human; conditions: basal-A, luminal, basal-B lines, fibroblasts
Protocol: For uptake and silencing treatment, cells were plated at low density (10,000 cells/well in 96-well plates) and treated immediately. All AsiC and siRNA treatments were performed in either OptiMEM or WIT medium. Cell viability was assessed by CellTiter-Glo (Promega) or by Trypan-Blue staining in 96-well plates.
For flow cytometry, cells were stained as previously described (Yu, F. et al (2007). let-7 Regulates Self Renewal and Tumorigenicity of Breast Cancer Cells. Cell 131, 1109-1123. ), briefly, direct immunostaining of EpCAM and AKT1 was performed using 1:50 dilutions of hAb for 30-60 minutes at 4° C. (BioLegend/BD). Cells were stained in PBS containing 0.5% FCS, 1 mM EDTA, and 25 mM HEPES. Samples were washed twice in the same buffer. Data was acquired using FACS-Canto II (BD Biosciences). Analyses were performed in triplicate and 10,000 gated events/sample were counted. All data analysis was performed using FlowJo (Treestar Inc.).
qRT-PCR analysis was performed as described (Petrocca, F., et al. (2008). E2F1-regulated microRNAs impair TGFbeta-dependent cell-cycle arrest and apoptosis in gastric cancer. Cancer Cell 13, 272-286). Briefly, total RNA was extracted with Trizol (Invitrogen) and cDNA prepared from 1000 ng total RNA using Thermoscript RT kit (Invitrogen) as per the […] (Applied Biosystems) and a BioRad C1000 Thermal Cycler (Biorad). Relative CT values were normalized to GAPDH and converted to a linear scale.

MB468-luc tumors = assay: Tumor inhibition, EpCAM+ MB468-luc xenograft; type: in vivo, nude mice; conditions: for growth of EpCAM+ MB468 tumors: 5 mg/kg sc every 3 d (72 h) for 2 wks
Protocol: For tumor inhibition studies, MB468-luc (5×10^6) and MB231-luc-mCherry (5×10^5) cells trypsinized with Tryple Express (Invitrogen), resuspended in a 1:1 WIT-Matrigel solution and injected subcutaneously in the flank of 8-week old female Nu/J mice (Stock #002019, Jackson Laboratories). Tumors size was analyzed daily using the IVIS Spectra, after 5 days tumors were clearly visible. […] Mice were treated every 72 h for 14 days.

MB468-luc cells = assay: Tumor initiation by ex vivo treated EpCAM+ cells in nude mice; conditions: cells treated ex vivo 24 h/overnight, then implanted, imaged 20 days
Protocol: For tumor initiation studies 8-week old female Nu/J mice (Stock #002019, Jackson Laboratories) were injected subcutaneously with MB468-luc (5×10^6) cells pretreated for 24 h with EpCAM-AsiC-GFP, EpCAM-AsiC-PLK1 or untreated. Cells were trypsinized with Tryple Express (Invitrogen), resuspended in WIT media and injected subcutaneously in the flank. Following intraperitoneal injection of 150 mg/kg D-luciferin (Caliper Life Sciences) luminescent images of the whole body were taken every 5 days for a total of 20 days using the IVIS Spectra system (Caliper Life Sciences).

Molecule	decrease of the proportion of surviving tumor cells ([1]; BPE mixed with epithelial TNBC lines, after 3 d) [fold]	innate immune stimulation [2]	innate immune stimulation ([2]; listed as EpCAM AsiCs)	AKT1 mRNA and protein knockdown across cell lines (AKT1)	injections until complete tumor regression (MB468-luc tumors; very aggressive TNBC xenograft model) [injections]	proportion of surviving EpCAM+ basal-A tumor cells ([1]; 3 days)	survival of an EpCAM− basal-B cell line in co-culture ([1]; 3 days)	share of EpCAM− (BPE) cells in co-culture after treatment ([1]; HCC1937 + BPE, untreated 41% BPE) [%]	share of EpCAM+ (HCC1937) cells in co-culture after treatment ([1]; HCC1937 + BPE, untreated 59% HCC1937) [%]	share of MB231 cells in co-culture after treatment ([1]; MB231 + BPE, untreated 33% MB231) [%]	share of BPE cells in co-culture after treatment ([1]; MB231 + BPE, untreated 66% BPE) [%]	tumor initiation, EpCAM+ cells (MB468-luc cells; listed as EpCAM-AsiC targeting PLK1)	tumor initiation, EpCAM+ cells (MB468-luc cells; listed as PLK1 EpCAM-AsiCs)	time at which tumors completely disappeared in many mice (MB468-luc tumors; 5 mg/Kg every 72 h) [days]	time of first tumor shrinkage (MB468-luc tumors; 5 mg/Kg every 72 h) [days]	growth of EpCAM+ MB468 tumors (MB468-luc tumors)	growth of EpCAM+ MB468 tumors (MB468-luc tumors; listed as PLK1-targeting AsiCs)	growth of EpCAM+ MB468 tumors (MB468-luc tumors; listed as PLK1 EpCAM-AsiCs)
EpCAM-AsiC: EpCAM aptamer-siRNA chimera, siRNA cargo not specified at the place; 2'-fluoropyrimidines, 3'-dTdT (nucleic acid, DNA at T, 2'-fluoro at CU, RNA at AG, backbone not given here; further chemistry not fully specified, EpCAM aptamer-siRNA chimera, siRNA cargo not specified at the place; 2'-fluoropyrimidines, 3'-dTdT) sense: GCGACUGGUUACCCGGUCGUUUUGAAGAAGAUCACCCUCCUUATT antisense: UAAGGAGGGUGAUCUUCUUCATT	7	do not trigger innate immunity	does not stimulate innate immunity in mice	uniform and selective for EpCAM+ cells	3	–	–	–	–	–	–	–	–	–	–	–	–	–
PLK1 EpCAM-AsiC: EpCAM aptamer linked by U-U-U to PLK1 siRNA sense strand (SEQ ID NO: 1), annealed to antisense strand (SEQ ID NO: 2) (nucleic acid, DNA at T, 2'-fluoro at CU, RNA at AG, backbone not given here; EpCAM aptamer fused to sense strand) sense: GCGACUGGUUACCCGGUCGUUUUGAAGAAGAUCACCCUCCUUATT antisense: UAAGGAGGGUGAUCUUCUUCATT	–	–	–	–	–	greatly reduced the proportion of surviving EpCAM+ basal-A tumor cells	had no effect on survival of an EpCAM− basal-B cell line	83	17	38	61	did not show any sign of a tumor after 20 days; also recorded: no tumor initiation	completely blocked tumor formation; also recorded: eliminated tumor initiation by basal-like TNBCs; also recorded: eliminated their ability to form tumors in nude mice	14	6	regress only after treatment with PLK1 EpCAM-AsiC	rapidly completely regressed	caused complete tumor regression of EpCAM+ TNBC xenografts
